Experimental data taken from patent US20100129347A1, “HERPES VIRUS INFECTION INHIBITOR, METHOD FOR INHIBITING INFECTION WITH HERPES VIRUS, AND USE THEREOF” (Osaka University, priority 2007, published 2010).

Tested on: HSV-1
Test: HSV-1-GFP infection of CHO-K1 cells transfected with human PILR, ratio of infected cells by flow cytometry
Assay type: cell-based
Settings: various concentrations, FIG. 3
Method: CHO-K1 cells were transiently transfected in a 10% FCS-containing F-12 culture medium using Lipofectamine 2000 (produced by Invitrogen) or GeneJuice (produced by Novagen). 1 day after the transfection, the 10% FCS-containing F-12 culture medium was replaced with a 1% FCS-containing F-12 culture medium. 2 days after the transfection, the transfectant was mixed with HSV-GFP and centrifuged at 32° C. at 2500 rpm for 2 hours. Thus, the transfectant was infected with HSV-GFP.
Human PILR was transiently transfected to the CHO-K1 cells by using pMx-IRES-DsRed expression vector, and the CHO-K1 cells were caused to be infected with HSV-1 by using HSV-1-GFP in the presence of anti-human PILR mAb with various concentrations or control mAb. The ratio of HSV-1-infected cells was analyzed by flow cytometry.
The CHO-K1 cells to which PILR had been transfected were caused to be infected with HSV-1 in the presence of PILR-Ig with various concentrations or Ig-fused protein without PILR that was a control. The ratio of the infected cells was analyzed by flow cytometry. Since PILR-Ig directly binds to gB of HSV-1, it is considered that there is a possibility that PILR-Ig blocks interaction between HSV-1 and PILR on the surface of a cell.

B1: control Ig-fused protein: Ig-fused protein without PILR used as control; purified human CD200-Ig fusion protein (protein)
chain: QVQVVTQDEREQLYTPASLKCSLQNAQEALIVTWQKKKAVSPENMVTFSENHGVVIQPAYKDKINITQLGLQNSTITFWNITLEDEGCYMCLFNTFGFGKISGTACLTVYVQPIVSLHYKFSEDHLNITCSATARPAPMVFWKVPRSGIENSTVTLSHPNGTTSVTSILHIKDPKNQVGKEVICQVLHLGTVTDFKQTVNKG
modifications: left off: a dimerising Fc or GST
- blocking of HSV-1 infection of PILR-transfected CHO-K1 cells: not blocked
